Our source for the Kd values is publication PMC10786891, “Massively parallel profiling of RNA-targeting CRISPR-Cas13d”.

T1: EsCas13d, nuclease-dead (Eubacterium siraeum, UniProt B0MS50, R295A;H300A;R849A;H854A)
T1 sequence: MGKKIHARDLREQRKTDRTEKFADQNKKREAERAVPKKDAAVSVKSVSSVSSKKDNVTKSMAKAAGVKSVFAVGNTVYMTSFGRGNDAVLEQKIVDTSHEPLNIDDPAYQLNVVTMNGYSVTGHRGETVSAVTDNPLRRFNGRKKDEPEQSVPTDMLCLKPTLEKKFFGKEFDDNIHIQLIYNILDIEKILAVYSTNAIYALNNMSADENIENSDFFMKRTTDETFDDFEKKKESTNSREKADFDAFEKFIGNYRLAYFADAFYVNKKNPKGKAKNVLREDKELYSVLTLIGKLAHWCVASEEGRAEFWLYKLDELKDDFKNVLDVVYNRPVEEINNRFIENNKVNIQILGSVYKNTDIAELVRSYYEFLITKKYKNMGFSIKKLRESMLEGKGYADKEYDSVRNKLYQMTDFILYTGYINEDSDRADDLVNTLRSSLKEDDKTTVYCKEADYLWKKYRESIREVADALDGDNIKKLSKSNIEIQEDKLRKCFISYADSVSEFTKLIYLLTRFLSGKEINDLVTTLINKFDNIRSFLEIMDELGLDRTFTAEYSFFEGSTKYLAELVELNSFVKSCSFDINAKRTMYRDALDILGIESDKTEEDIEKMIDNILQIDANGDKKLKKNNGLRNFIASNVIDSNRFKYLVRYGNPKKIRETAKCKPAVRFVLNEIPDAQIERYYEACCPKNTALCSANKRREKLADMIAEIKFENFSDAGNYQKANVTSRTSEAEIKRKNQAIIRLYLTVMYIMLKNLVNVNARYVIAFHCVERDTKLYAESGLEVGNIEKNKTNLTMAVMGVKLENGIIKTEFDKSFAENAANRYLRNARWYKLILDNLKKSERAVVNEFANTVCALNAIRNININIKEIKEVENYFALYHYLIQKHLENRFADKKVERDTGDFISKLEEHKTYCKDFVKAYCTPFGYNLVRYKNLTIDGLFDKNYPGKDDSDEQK

B1: target 1 A1G,U3A (mixed)
RNA 1: CACCCGUGCAAAAAUGCAGGGGUCUAAAACUGAGCGGAUAACCUCUCUAUGG
RNA 2: GGGAAUGGAUCCACAUCUACGAAUUCGUACCAUAGAGAGGUUAUCCGCACGCCGAGAUCGGAAGAGCACACGU
B2: target 1 insA 3' of 5,insU 3' of 1 (mixed)
RNA 1: CACCCGUGCAAAAAUGCAGGGGUCUAAAACUGAGCGGAUAACCUCUCUAUGG
RNA 2: GGGAAUGGAUCCACAUCUACGAAUUCGUACCAUAGAGAGGUUAUCCGACUCAUCCGAGAUCGGAAGAGCACACGU
B3: target 3 insA 3' of 7,insG 3' of 6 (mixed)
RNA 1: CACCCGUGCAAAAUUGCAGGGGUCUAAAACGACCUGAAUAUUUCAGAUCAAA
RNA 2: GGGAAUGGAUCCACAUCUACGAAUUCGUUUUUGAUCUGAAAUAUUACGAGGUCUGCAGAUCGGAAGAGCACACGU
B4: target 3 complement block 4-7 (mixed)
RNA 1: CACCCGUGCAAAAUUGCAGGGGUCUAAAACGACCUGAAUAUUUCAGAUCAAA
RNA 2: GGGAAUGGAUCCACAUCUACGAAUUCGUUUUUGAUCUGAAAUAUAGUCGUCUGCAGAUCGGAAGAGCACACGU
B5: target 3 insA 3' of 8,insU 3' of 4 (mixed)
RNA 1: CACCCGUGCAAAAUUGCAGGGGUCUAAAACGACCUGAAUAUUUCAGAUCAAA
RNA 2: GGGAAUGGAUCCACAUCUACGAAUUCGUUUUUGAUCUGAAAUAUAUCAGUGUCUGCAGAUCGGAAGAGCACACGU
B6: target 3 U2A,A9G (mixed)
RNA 1: CACCCGUGCAAAAUUGCAGGGGUCUAAAACGACCUGAAUAUUUCAGAUCAAA
RNA 2: GGGAAUGGAUCCACAUCUACGAAUUCGUUUUUGAUCUGAAAUGUUCAGGACUGCAGAUCGGAAGAGCACACGU
B7: target 3 A11C (mixed)
RNA 1: CACCCGUGCAAAAUUGCAGGGGUCUAAAACGACCUGAAUAUUUCAGAUCAAA
RNA 2: GGGAAUGGAUCCACAUCUACGAAUUCGUUUUUGAUCUGAACUAUUCAGGUCUGCAGAUCGGAAGAGCACACGU
B8: target 3 insG 3' of 7,insA 3' of 6 (mixed)
RNA 1: CACCCGUGCAAAAUUGCAGGGGUCUAAAACGACCUGAAUAUUUCAGAUCAAA
RNA 2: GGGAAUGGAUCCACAUCUACGAAUUCGUUUUUGAUCUGAAAUAUUGCAAGGUCUGCAGAUCGGAAGAGCACACGU
B9: target 3 insG 3' of 5,insU 3' of 3 (mixed)
RNA 1: CACCCGUGCAAAAUUGCAGGGGUCUAAAACGACCUGAAUAUUUCAGAUCAAA
RNA 2: GGGAAUGGAUCCACAUCUACGAAUUCGUUUUUGAUCUGAAAUAUUCAGGGUUCUGCAGAUCGGAAGAGCACACGU
B10: target 3 U8A,A18G (mixed)
RNA 1: CACCCGUGCAAAAUUGCAGGGGUCUAAAACGACCUGAAUAUUUCAGAUCAAA
RNA 2: GGGAAUGGAUCCACAUCUACGAAUUCGUUUUUGGUCUGAAAUAAUCAGGUCUGCAGAUCGGAAGAGCACACGU
B11: target 3 insA 3' of 3,insA 3' of 2 (mixed)
RNA 1: CACCCGUGCAAAAUUGCAGGGGUCUAAAACGACCUGAAUAUUUCAGAUCAAA
RNA 2: GGGAAUGGAUCCACAUCUACGAAUUCGUUUUUGAUCUGAAAUAUUCAGGAUACUGCAGAUCGGAAGAGCACACGU
B12: target 3 insC 3' of 3,insU 3' of 3 (mixed)
RNA 1: CACCCGUGCAAAAUUGCAGGGGUCUAAAACGACCUGAAUAUUUCAGAUCAAA
RNA 2: GGGAAUGGAUCCACAUCUACGAAUUCGUUUUUGAUCUGAAAUAUUCAGGCUUCUGCAGAUCGGAAGAGCACACGU
B13: target 3 C6U,A9G (mixed)
RNA 1: CACCCGUGCAAAAUUGCAGGGGUCUAAAACGACCUGAAUAUUUCAGAUCAAA
RNA 2: GGGAAUGGAUCCACAUCUACGAAUUCGUUUUUGAUCUGAAAUGUUUAGGUCUGCAGAUCGGAAGAGCACACGU
B14: target 3 insC 3' of 4,insA 3' of 3 (mixed)
RNA 1: CACCCGUGCAAAAUUGCAGGGGUCUAAAACGACCUGAAUAUUUCAGAUCAAA
RNA 2: GGGAAUGGAUCCACAUCUACGAAUUCGUUUUUGAUCUGAAAUAUUCAGCGAUCUGCAGAUCGGAAGAGCACACGU
B15: target 3 U2G,A5G (mixed)
RNA 1: CACCCGUGCAAAAUUGCAGGGGUCUAAAACGACCUGAAUAUUUCAGAUCAAA
RNA 2: GGGAAUGGAUCCACAUCUACGAAUUCGUUUUUGAUCUGAAAUAUUCGGGGCUGCAGAUCGGAAGAGCACACGU
B16: target 3 insA 3' of 7,insU 3' of 3 (mixed)
RNA 1: CACCCGUGCAAAAUUGCAGGGGUCUAAAACGACCUGAAUAUUUCAGAUCAAA
RNA 2: GGGAAUGGAUCCACAUCUACGAAUUCGUUUUUGAUCUGAAAUAUUACAGGUUCUGCAGAUCGGAAGAGCACACGU
B17: target 3 insA 3' of 10,insA 3' of 6 (mixed)
RNA 1: CACCCGUGCAAAAUUGCAGGGGUCUAAAACGACCUGAAUAUUUCAGAUCAAA
RNA 2: GGGAAUGGAUCCACAUCUACGAAUUCGUUUUUGAUCUGAAAUAAUUCAAGGUCUGCAGAUCGGAAGAGCACACGU
B18: target 3 G3C,U8A (mixed)
RNA 1: CACCCGUGCAAAAUUGCAGGGGUCUAAAACGACCUGAAUAUUUCAGAUCAAA
RNA 2: GGGAAUGGAUCCACAUCUACGAAUUCGUUUUUGAUCUGAAAUAAUCAGCUCUGCAGAUCGGAAGAGCACACGU
B19: target 3 C1A,U22G (mixed)
RNA 1: CACCCGUGCAAAAUUGCAGGGGUCUAAAACGACCUGAAUAUUUCAGAUCAAA
RNA 2: GGGAAUGGAUCCACAUCUACGAAUUCGUUGUUGAUCUGAAAUAUUCAGGUAUGCAGAUCGGAAGAGCACACGU
B20: target 3 insG 3' of 9,insG 3' of 7 (mixed)
RNA 1: CACCCGUGCAAAAUUGCAGGGGUCUAAAACGACCUGAAUAUUUCAGAUCAAA
RNA 2: GGGAAUGGAUCCACAUCUACGAAUUCGUUUUUGAUCUGAAAUAGUUGCAGGUCUGCAGAUCGGAAGAGCACACGU
B21: target 3 G3C,A5C (mixed)
RNA 1: CACCCGUGCAAAAUUGCAGGGGUCUAAAACGACCUGAAUAUUUCAGAUCAAA
RNA 2: GGGAAUGGAUCCACAUCUACGAAUUCGUUUUUGAUCUGAAAUAUUCCGCUCUGCAGAUCGGAAGAGCACACGU
B22: target 3 G4A,A13G (mixed)
RNA 1: CACCCGUGCAAAAUUGCAGGGGUCUAAAACGACCUGAAUAUUUCAGAUCAAA
RNA 2: GGGAAUGGAUCCACAUCUACGAAUUCGUUUUUGAUCUGGAAUAUUCAAGUCUGCAGAUCGGAAGAGCACACGU
B23: target 3 U22G (mixed)
RNA 1: CACCCGUGCAAAAUUGCAGGGGUCUAAAACGACCUGAAUAUUUCAGAUCAAA
RNA 2: GGGAAUGGAUCCACAUCUACGAAUUCGUUGUUGAUCUGAAAUAUUCAGGUCUGCAGAUCGGAAGAGCACACGU

This data set deals with T1, EsCas13d, nuclease-dead. Briefly: crRNA (strand 1, pre-loaded); Mg2+; 40 mM Tris-HCl pH 7.5, 150 mM NaCl, 6 mM MgCl2, 1 mM DTT, 0.1% Tween-20, 0.2 mg/ml BSA; 25 C; 10 min per concentration, then washed. As to conditions: tags: His6-TwinStrep-SUMO cleaved; N-terminal SNAP kept (SNAP-Surface 488); label: 3' end held by stalled T7 RNA polymerase.
As a reminder, the Kd is the concentration at which binding is half-saturated. Low values mean higher affinity, high ones lower affinity. B1 registered a Kd of 6.8 ± 0.6 nM.
Turning to B2, the Kd came to 9.5 ± 1 nM.
As for B3, the Kd turned out to be 21.1 ± 1.4 nM.
In the case of B4 it was 23.6 ± 1.75 nM; in that of B5, 21.8 ± 3.6 nM; in that of B6, 47 ± 6 nM.
B7 came in with a Kd of 81.5 ± 34 nM.
In the case of B8 it was 29.3 ± 3.75 nM; in that of B9, 30 ± 4.5 nM.
Then B10, with 63 ± 9.5 nM.
In the case of B11 it was 26.5 ± 6 nM; in that of B12, 17.9 ± 2.1 nM; in that of B13, 22.1 ± 1.9 nM.
In turn, B14 returned a Kd of 34 ± 4.05 nM.
In the case of B15 it was 2.54 ± 0.36 nM.
In the case of B16, the Kd was 76 ± 32 nM.
On to B17, for which the Kd was found to be 71 ± 8.5 nM.
In the case of B18 it was 63.5 ± 7.5 nM.
Then B19, with around 87 nM.
In the case of B20 it was 63 ± 7 nM.
In turn, B21 showed an equilibrium dissociation constant (Kd) of 96.5 ± 15.5 nM.
In the case of B22 it was 112 ± 35 nM; in that of B23, 61 ± 13 nM.
